{"source": "paper PMC5897016", "origin": "cited, not measured here", "molecular_target": "Complement C5 (Homo sapiens) (UniProt P01031)", "data": [{"substance": "eculizumab", "values": [{"measurement": "Kd", "value": "< 50", "unit": "pM"}]}]}
